One series has as its target T1, firefly luciferase (Photinus pyralis, UniProt P08659).
T1 construct: purchased BioThema AB, Sweden ATP Kit SL
The experiment in a line: Inhibitor development: effect on luciferase. It is filed as biochemical. How it is done: After checking the rSFA inhibitory activity in buffer, it was verified with urine, where 10 μl were added with 80 μl of cell lysate reagent and 10 μmol/L of ATP. […]

In the next series the test system is rSFA. In words: Inhibitor development: inhibition of rSFA. Type of series: biochemical, Shigella flexneri. On the procedure:
After checking the rSFA inhibitory activity in buffer, it was verified with urine, where 10 μl were added with 80 μl of cell lysate reagent and 10 μmol/L of ATP. About 100 mM of MgSO4 and 1 mM of Na3VO4 were added in separate tubes and incubated for 10 min before measuring the light emission using firefly luciferase.

Series [1] is described as follows: Elimination of extracellular ATP in serum, bioluminescent assay. It is filed as biochemical. Also noted: ATP depletion rate: unit not given beside the values. Particulars: for time after which no further ATP elimination: 10% serum, FIG. 8; for time to complete hydrolysis of ATP and its analogues: 100% crude serum, FIG. 6A. On the procedure: (§1) Cuvettes contained 100 μL sample in a total volume of 1 mL containing ATP Reagent SL (BioThema AB, Sweden) in 0.07 mol/L Tris- EDTA Buffer and the reaction was started by injection of 10 μL 10 μmol/L ATP Standard. The initial apyrase activity was determined as described by Lundin and coworkers (Analytical Biochemistry 75, 611-620 (1976) and Methods in Enzymology vol 305, 346-370 (2000)) with some modifications. Bioluminescence was measured at every 10 s during 1 min, in the fully automatic 1251 Luminometer (LKB-Wallac, Turku, Finland). To this, 10 μl of 10 μmol/L ATP was added to determine the background ground luminescence. The temperature control was set to 25° C. and bioluminescence was measured from several cuvettes in parallel during 30 or 60 minutes and compared to residual ATP after various incubation times using rSFA and STA. This was repeated with rSFA and STA and a graph was plotted by keeping the ATP-degradation rate as internal control to determine the ATP-degradation efficiency of both of the enzyme sources.
(§2) Light emission from the firefly-luciferase reaction was measured at 25° C. in a 1251 Luminometer (LKB-Wallac; Finland) using the ATP Kit SL (BioThema AB, Sweden) according to the manufacture's instruction (in buffer experiment) or adding concentrated luciferase (in serum/urine experiments). Initially luciferase reaction follows first-order kinetics and the ATP Reagent SL in this kit produces light intensity proportional to the ATP concentration. A plot of the natural logarithm of the light intensity versus time yields a straight line with the slope representing the rate constant of the reaction. Starting concentration of STA, A6535, A6237 (Sigma-Aldrich) was adjusted similar to rSFA. BL-reaction was started automatically upon addition of 0.2 μmol/L ATP, and the light intensity was measured every 10 second for 10 minutes (in buffer experiment) or 30 minutes (in serum and urine experiments), in the reaction volume of 0.5 mL.

The nature of series [2]: Buffer optimization: rSFA activity after storage, bioluminescent ATP-elimination assay. Particulars: stored in Buffer 3 about 10 months at +4° C.; compared with Buffer 1 and 2. Type of series: physicochemical. How it is done:
Equal concentration of rSFA was stored in Buffer 1(20 mM Tris, 1 mM EDTA, 1% BSA, 25 mM MgSO4, pH 7.5), Buffer 2 (20 mM Tris, 25 mM MgSO4, 2.5% BSA, pH 7.5) and Buffer 3 (20 mM HEPES, 500 mM NaCl, 25 mM MgSO4, pH 7.5) for about 10 months at 4° C. Bioluminescence activity assay was performed as described below to detect the activity of rSFA after storage.

Series [3] is described as follows: HPLC analysis of nucleotide degradation: dCTP. It is filed as biochemical. How it is done: (§3) To compare rSFA activity on nucleotides to that of STA, ATP, dATP, dTTP, dGTP and dCTP were incubated with the enzymes (same initial activity) for 5 min and 35 min and the resulting products were detected using high performance liquid chromatography (HPLC).
(§4) The dNTP Standard preparation was prepared to contain final concentration of 0.1 mM […]. Nucleosides ATP/dATP/dCTP/dGTP/dTTP were suspended in Tris-EDTA buffer and diluted 10 times with the mobile phase (70% acetonitrile, 30% ammonium acetate pH 5.35). The above-prepared nucleosides were individually incubated with equal amounts of rSFA and STA for 35 min at pH 7.75 and 5 μl of the mixture was injected into HPLC instrument (SeQuant ZIC®-pHILIC column, Merck Millipore) at a flow rate of 0.7 mL/min using a pump (Jasco PU-2089 Plus). Peaks were detected at 254 nm by UV-2075 Plus detector and the chromatographic separation was achieved using isocratic elution. Analysis was performed using Chrompass software, where each nucleotide/nucleoside was identified by comparison with retention time of the respective standards.

Series [4] is described as follows: Hydrolysis of ADP and ATP/ADP mixture in urine. It is filed as biochemical. To be noted: 10 μmol/L, FIG. 10. How it is done:
as §2, with “BL-reaction was started automatically upon addition of 0.2 μmol/L ATP, and the light intensity was measured every 10 second for 10 minutes (in buffer experiment) or 30 minutes (in serum and urine experiments), in the reaction volume of 0.5 mL.” left out

The nature of series [5]: ATP degradation by apyrase in buffer, firefly luciferase bioluminescent assay. Particulars: for time to eliminate ATP: enzymes diluted 10× in Tris-EDTA Buffer; for ATP depletion rate: No serum (Negative control). It is filed as biochemical. How it is done: as §1, §2
Series [6] in a line: HPLC analysis of nucleotide degradation: dATP. Type of series: biochemical. On the procedure:
as §3, §4

Series [7] is described as follows: HPLC analysis of nucleotide degradation: ATP. Type of series: biochemical. Particulars: for time to complete conversion of ATP: STA to ADP and AMP, rSFA to AMP. On the procedure: as §3, §4
Series [8] is described as follows: ATP elimination in urine, bioluminescent assay. Type of series: biochemical. Particulars: for time to complete ATP elimination: after 4 subsequent injections of 10 μL 10 μmol/L ATP. How it is done:
as §2

Series [9] in a line: HPLC analysis of nucleotide degradation: dTTP. Type of series: biochemical. Particulars: STA to TDP and TMP, rSFA to TMP. How it is done: as §3, §4
Series [10] can be described thus: SFA activity across pH and in EDTA. Type of series: biochemical.
The nature of series [11]: SFA stability to freeze-thaw and refrigerator storage. Particulars: crude form, without addition of stabilizers. Type of series: physicochemical. How it is done:
The rSFA samples were kept at 4° C., then frozen and freeze-thawed to check its stability. An effort was made to see if the rSFA could be used to prepare a reagent for the depletion of extraneous ATP in biological samples.

Series [12] in a line: ATP degradation by apyrase in buffer, firefly luciferase bioluminescent assay. It is filed as biochemical.
Where [13] appears, read: Undiluted serum (100% crude serum).

Where “and” joins values, the source holds several entries; their conditions need not be identical. Identical values can stand only once. Entries after “also recorded” stand apart in the source; their conditions may differ. Bounds are passed on as bounds.

From patent US20170321196A1, “ANALYTICAL AND DIAGNOSTIC METHODS UTILIZING SHIGELLA FLEXNERI APYRASE” (priority 2014, published 2017) come the findings set out here.

T1 sequence (P08659 whole entry): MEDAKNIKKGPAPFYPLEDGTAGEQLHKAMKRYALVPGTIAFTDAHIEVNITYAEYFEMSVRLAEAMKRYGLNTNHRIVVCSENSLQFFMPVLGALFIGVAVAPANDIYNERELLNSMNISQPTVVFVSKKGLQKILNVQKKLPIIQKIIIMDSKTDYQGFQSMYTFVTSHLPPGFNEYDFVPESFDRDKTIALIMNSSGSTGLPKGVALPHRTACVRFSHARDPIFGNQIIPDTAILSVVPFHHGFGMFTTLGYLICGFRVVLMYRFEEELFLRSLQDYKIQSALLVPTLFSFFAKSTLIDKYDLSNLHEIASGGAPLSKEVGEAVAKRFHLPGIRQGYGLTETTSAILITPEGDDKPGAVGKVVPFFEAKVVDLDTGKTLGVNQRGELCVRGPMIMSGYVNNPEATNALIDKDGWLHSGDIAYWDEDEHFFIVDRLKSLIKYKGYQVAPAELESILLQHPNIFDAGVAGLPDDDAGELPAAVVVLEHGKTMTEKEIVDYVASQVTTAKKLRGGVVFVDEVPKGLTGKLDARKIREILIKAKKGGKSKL

For `O=S(=O)([O-])[O-].[Mg+2]` [MgSO4], the results for the “effect on luciferase activity” value on firefly luciferase (100 mM MgSO4) and on firefly luciferase (magnesium at 50 mM) were “affected the activity of luciferase” and “decreased the activity of luciferase”, respectively. Further, the figures for the “inhibition of rSFA activity” value with rSFA (100 mM MgSO4) and with rSFA (magnesium at 50 mM) were “showed inhibitory action” and “completely inhibit”, respectively.
With `[O]=[V]([O-])([O-])[O-]` [ortho-vanadate], at firefly luciferase (1 mM ortho-vanadate), the “effect on luciferase activity” value is reported as “did not affect luciferase at all”. The “inhibition of rSFA activity” value in the series on rSFA (1 mM ortho-vanadate (Na3VO4)) is reported as “completely inhibited”.

B1: rSFA: Recombinant Shigella flexneri apyrase with 6-His tag, amino-acid sequence SEQ ID NO: 4, expressed in E. coli BL21-A1 (protein, listed as Shigella flexneri)
chain: DIHMKTKNFLLFCIATNMIFIPSANALKAEGFLTQQTSPDSLSILPPPPAENSVVFQADKAHYEFGRSLRDANRVRLASEDAYYENFGLAFSDAYGMDISRENTPILYQLLTQVLQDSHDYAVRNAKEYYKRVRPFVIYKDATCTPDKDEKMAITGSYPSGHASFGWAVALILAEINPQRKAEILRRGYEFGESRVICGAHWQSDVEAGRLMGASVVAVLHNTPEFTKSLSEAKKEFEELNTPTNELTPHHHHHHRTMF
modifications: 6-His tag
With B1, the ATP depletion rate is 1.774 in series [1] (10% Diluted serum), 1.816 in series [1] (setting [13]) and 3.98 in series [5]. The “time after which no further ATP elimination” value in series [1] is listed as over 30 min. Moreover, the “time to complete hydrolysis of ATP and its analogues” value in series [1] was about 17 min. The activity after storage result in [2] is recorded as “particularly good activity; also recorded: very good activity”. Further, the “time to complete conversion of dCTP into CMP” value in series [3] is reported as “less than 5 min”. Also, the “change of activity with ADP or mixture of ADP and ATP” value in [4] is listed as “no substantial difference; also recorded: not affected”. Besides, the “rate constant of ATP elimination” value in series [5] (FIG. 4) turned out to be 3.87 min⁻¹. Moreover, in [5] (FIG. 4), the “time to eliminate ATP” value is ~10 min and ~15 min. In addition, the “time after which saturated and ineffective in further reducing the ATP concentration” value in series [5] (in buffer, FIG. 7) is over 300 s. Also, the “time to full conversion of dATP into dAMP” value in [6] is “less than 5 min”. In addition, the “time to complete conversion of ATP” value in [7] is listed as “less than 5 min”. The “time to complete ATP elimination” value in [8] was “less than 3 min”. In addition, the “time to conversion of dTTP” value in [9] was “less than 5 min”.

B2: SFA: Apyrase derived from Shigella flexneri, recombinant or non-recombinant; native sequence SEQ ID NO: 10 (protein, listed as Shigella flexneri)
chain: MKTKNFLLFCIATNMIFIPSANALKAEGFLTQQTSPDSLSILPPPPAENSVVFQADKAHYEFGRSLRDANRVRLASEDAYYENFGLAFSDAYGMDISRENTPILYQLLTQVLQDSHDYAVRNAKEYYKRVRPFVIYKDATCTPDKDEKMAITGSYPSGHASFGWAVALILAEINPQRKAEILRRGYEFGESRVICGAHWQSDVEAGRLMGASVVAVLHNTPEFTKSLSEAKKEFEELNTPTNELTP
As to B2, in series [10], the “activity in high concentrations of EDTA” value was “remains to be active” and the “pH range of very good activity” value is listed as 7.0-7.5. Further, in [11], the stability entry was “tolerates freeze-thaw-cycles and storage in solution at refrigerator temperatures”.

B3: STA: Solanum tuberosum apyrase, commercially available potato apyrase from Sigma-Aldrich, SEQ ID NO: 9 (protein, listed as Solanum tuberosum)
chain: MLNQNSHFIFIILAIFLVLPLSLLSKNVNAQIPLRRHLLSHESEHYAVIFDAGSTGSRVHVFRFDEKLGLLPIGNNIEYFMATEPGLSSYAEDPKAAANSLEPLLDGAEGVVPQELQSETPLELGATAGLRMLKGDAAEKILQAVRNLVKNQSTFHSKDQWVTILDGTQEGSYMWAAINYLLGNLGKDYKSTTATIDLGGGSVQMAYAISNEQFAKAPQNEDGEPYVQQKHLMSKDYNLYVHSYLNYGQLAGRAEIFKASRNESNPCALEGCDGYYSYGGVDYKVKAPKKGSSWKRCRRLTRHALKINAKCNIEECTFNGVWNGGGGDGQKNIHASSFFYDIGAQVGIVDTKFPSALAKPIQYLNAAKVACQTNVADIKSIFPKTQDRNIPYLCMDLIYEYTLLVDGFGLNPHKEITVIHDVQYKNYLVGAAWPLGCAIDLVSSTTNKIRVASS
In the case of B3, the ATP depletion rate stood at 2.429 in series [1] (10% Diluted serum), 0.5536 in [1] (setting [13]) and 3.52 in [5]. For the same molecule, the “time after which no further ATP elimination” value in [1] came out at 6 min. Besides, the “time to complete hydrolysis of ATP and its analogues” value in [1] is listed as about 45 min. For the same molecule, the “Remaining ATP activity after 91 min” value in series [12] stood at 0.0228%. Besides, the “portion of dCTP converted into CDP and CMP” value in series [3] (after 35 min) is “only half”. In addition, in [4], the “change of activity with ADP or mixture of ADP and ATP” value is “considerably decreased”. In addition, in [5], the Initial activity stood at 4.12 Units/mg protein. Further, in series [5] (FIG. 4), the “time to eliminate ATP” value is on record as over 60 min. The “Remaining ATP activity after 1 min” value in series [5] (after 1 min) turned out to be 1.1876%. In addition, the “Remaining ATP activity after 17 min” value in series [5] (after 17 min) is recorded as 0.0367%. Further, in series [5] (after one minute), the “amount of ATP remaining lower in STA samples compared to rSFA (factor)” value is on record as about 2. Further, the dATP remaining result in series [6] (after 35 min of incubation) is recorded as “more than 25%”. Besides, in [7] (5 min incubation), the “cleavage of ATP to ADP and AMP” value is recorded as “only partially cleaved”. In series [7], the “time to complete conversion of ATP” value was determined as 35 min. The “time after which rate of action was hindered” value in series [8] (FIG. 9) was 3 min. The “time to complete ATP elimination” value in [8] is listed as over 20 min. In addition, the “time to conversion of dTTP” value in series [9] worked out at 35 min.
